Laboratory results: patent US20220162320A1 (published 2022)

Columns and labels:
[1] = target: T1, CD3 (reagent of the affinity experiments of Example 18) (UniProt P07766 23-126); assay: BLI
T1 chain: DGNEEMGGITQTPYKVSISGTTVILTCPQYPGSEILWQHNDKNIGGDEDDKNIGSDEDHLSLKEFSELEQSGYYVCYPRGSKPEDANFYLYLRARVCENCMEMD

[2] = target: T2, HLA-PEPTIDE target G2: HLA-A*01:01_…, recombinant soluble complex (human, enzymatically biotinylated (BirA)); assay: BLI
[3] = target: T2, HLA-PEPTIDE target G2: HLA-A*01:01_…, …; assay: BLI; apparent KD (bivalent), avid

B1: 4-G2(1H11)-hOKT3 (bispecific antibody)
chain: not shown
heavy: QVQLVQSGAEVKKPGASVKVSCKASGYTFTNYYMHWVRQAPGQGLEWMGMINPSGGGTSYAQKFQGRVTMTRDTSTSTVYMELSSLRSEDTAVYYCARGNPWELRLDYWGQGTLVTVSSGGGGSGGGGSGGGGSGGGGSDIQMTQSPSSLSASVGDRVTITCQASQDISNYLNWYQQKPGKAPKLLIYAASSLQSGVPSRFSGSGSGTDFTLTISSLQPEDFATYYCQQYYSYPFTFGPGTKVDIKGGGGSGGGGSQVQLVQSGAEVKKPGASVKVSCKASGYTFTRYTMHWVRQAPGQGLEWMGYINPSRGYTNYNQKFKDRVTLTTDKSSSTAYMELSSLRSEDTAVYYCARYYDDHYSLDYWGQGTLVTVSSASTKGPSVFPLAPSSKSTSGGTAALGCLVKDYFPEPVTVSWNSGALTSGVHTFPAVLQSSGLYSLSSVVTVPSSSLGTQTYICNVNHKPSNTKVDKRVEPKSCDKTHTCPPCPAPELLGGPSVFLFPPKPKDTLMISRTPEVTCVVVDVSHEDPEVKFNWYVDGVEVHNAKTKPREEQYQSTYRVVSVLTVLHQDWLNGKEYKCKVSNKALPAPIEKTISKAKGQPREPQVCTLPPSREEMTKNQVSLSCAVKGFYPSDIAVEWESNGQPENNYKTTPPVLDSDGSFFLVSKLTVDKSRWQQGNVFSCSVMHEALHNRFTQKSLSLSPGK
light: DIQMTQSPSSLSASVGDRVTITCSASSSVSYMNWYQQKPGKAPKRLIYDTSKLASGVPSRFSGSGSGTDFTLTISSLQPEDFATYYCQQWSSNPFTFGQGTKLEIKRTVAAPSVFIFPPSDEQLKSGTASVVCLLNNFYPREAKVQWKVDNALQSGNSQESVTEQDSKDSTYSLSSTLTLSKADYEKHKVYACEVTHQGLSSPVTKSFNRGEC
Kd [1]: 26.1 nM | Kd [2]: 5.34 nM | Kd [3]: 2.72 nM
